Assay results taken from the supplement of paper PMC10126150.
± gives the standard deviation of the averaged measurements.

System: ATP
Test: switch fluorescence ratio, 500 uM ATP over buffer (Cy3 cluster intensity, sum of 5 cycles each) (fold (ratio)); higher = stronger signal-on switching upon ATP binding; sequences stand for … in TCGTCGGCAGCGTCAGATGTGTATAAGAGACAGTTTTTTTTTTTTTTTTTTTTTTTTT…TC
Conditions: aptamer strand: ATP DNA aptamer (quencher-CACCTGGGGGAGTATTGCGGAGGAAGG + anchor), 100 nM annealed; ATP concentration: 500 uM
Method in brief: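 The fluorescence ratio divides summed target-cycle Cy3 intensity by summed buffer-cycle Cy3 intensity for each cluster and is averaged per switch-domain sequence. Cy3-labelled switching-strand clusters on a modified Illumina MiSeq flow-cell were annealed to 100 nM quencher-labelled ATP aptamer, then imaged in selection buffer and again after 15 min with 500 uM ATP at 22 °C. Five such cycles were run, with NaOH stripping and re-annealing between them, and clusters outside 100-1000 RFU were excluded.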
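Also: ATP exposure 15 min at 22 °C before imaging.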

TAAGAAGTTA
switch fluorescence ratio: 1.02 ± 0.03

TAAGAATCGC
switch fluorescence ratio: 1.15 ± 0.2

TAAGAATGTT
switch fluorescence ratio: 0.977 ± 0.0098

TAAGAGCTGA
switch fluorescence ratio: 0.985 ± 0.023

TAAGAGGCAC
switch fluorescence ratio: 0.996 ± 0.052

TAAGAGGGCT
switch fluorescence ratio: 0.996 ± 0.022

TAAGAGGGGT
switch fluorescence ratio: 1.03 ± 0.07

TAAGAGTACT
switch fluorescence ratio: 1.008 ± 0.0019

TAAGAGTGCA
switch fluorescence ratio: 0.973 ± 0.027

TAAGATCTTA
switch fluorescence ratio: 0.997 ± 0.015

TAAGATGTAG
switch fluorescence ratio: 0.9957 ± 0.0011

TAAGATGTTG
switch fluorescence ratio: 1.01 ± 0.019

TAAGATTACA
switch fluorescence ratio: 1.017 ± 0.006

TAAGATTGTT
switch fluorescence ratio: 1.02 ± 0.017

TAAGCAGGTT
switch fluorescence ratio: 0.995 ± 0.017

TAAGCATAAG
switch fluorescence ratio: 1.01 ± 0.027

TAAGCCGCCT
switch fluorescence ratio: 0.998 ± 0.016

TAAGCCTTTT
switch fluorescence ratio: 1.038 ± 0.0024

TAAGCGCGGC
switch fluorescence ratio: 1.055 ± 0.0079

TAAGCGGGG
switch fluorescence ratio: 1.002 ± 0.0026

TAAGCGGGGA
switch fluorescence ratio: 1.027 ± 0.0054

TAAGCGTCTG
switch fluorescence ratio: 1.013 ± 0.0057

TAAGCTATTT
switch fluorescence ratio: 1.02 ± 0.025

TAAGCTGCGT
switch fluorescence ratio: 0.989 ± 0.03

TAAGCTTACA
switch fluorescence ratio: 1.04 ± 0.032

TAAGCTTTGT
switch fluorescence ratio: 0.9902 ± 0.0025

TAAGGAATGC
switch fluorescence ratio: 1.54 ± 0.035

TAAGGAATTG
switch fluorescence ratio: 1.01 ± 0.045

TAAGGACGGG
switch fluorescence ratio: 1.02 ± 0.03

TAAGGAGGTG
switch fluorescence ratio: 1.033 ± 0.008

TAAGGAGTTT
switch fluorescence ratio: 0.972 ± 0.016

TAAGGCAC
switch fluorescence ratio: 1.04 ± 0.017

TAAGGCGGAG
switch fluorescence ratio: 0.9951 ± 0.0032

TAAGGCGGGG
switch fluorescence ratio: 0.993 ± 0.042

TAAGGCTACC
switch fluorescence ratio: 1.048 ± 0.004

TAAGGCTGC
switch fluorescence ratio: 1.04 ± 0.076

TAAGGGCAGA
switch fluorescence ratio: 1.02 ± 0.045

TAAGGGGAAA
switch fluorescence ratio: 0.979 ± 0.026

TAAGGGGGAA
switch fluorescence ratio: 1.03 ± 0.06

TAAGGGGGCC
switch fluorescence ratio: 1.08 ± 0.16

TAAGGGGGCT
switch fluorescence ratio: 1.01 ± 0.034

TAAGGGGTCC
switch fluorescence ratio: 0.979 ± 0.013

TAAGGGGTTC
switch fluorescence ratio: 0.982 ± 0.022

TAAGGGGTTT
switch fluorescence ratio: 1.03 ± 0.058

TAAGGGTAAT
switch fluorescence ratio: 0.973 ± 0.046

TAAGGGTGCA
switch fluorescence ratio: 0.994 ± 0.064

TAAGGGTTTT
switch fluorescence ratio: 1 ± 0.036

TAAGGTCGAT
switch fluorescence ratio: 1.01 ± 0.022

TAAGGTGGTA
switch fluorescence ratio: 1.02 ± 0.014

TAAGGTTTTG
switch fluorescence ratio: 1.01 ± 0.022

TAAGGTTTTT
switch fluorescence ratio: 1.03 ± 0.063

TAAGTATGTT
switch fluorescence ratio: 1.002 ± 0.0031

TAAGTGAGAA
switch fluorescence ratio: 0.983 ± 0.038

TAAGTGAGGG
switch fluorescence ratio: 0.981 ± 0.018

TAAGTGAGGT
switch fluorescence ratio: 0.99677 ± 0.00077

TAAGTGATG
switch fluorescence ratio: 1 ± 0.034

TAAGTGCTGG
switch fluorescence ratio: 1.01 ± 0.016

TAAGTGGGCC
switch fluorescence ratio: 1 ± 0.036

TAAGTGGTCG
switch fluorescence ratio: 1.03 ± 0.036

TAAGTTAGTC
switch fluorescence ratio: 1.02 ± 0.012

TAAGTTATAT
switch fluorescence ratio: 0.985 ± 0.015

TAAGTTATGG
switch fluorescence ratio: 0.997 ± 0.02

TAAGTTGATC
switch fluorescence ratio: 0.989 ± 0.053

TAAGTTGGTA
switch fluorescence ratio: 0.9521 ± 0.0054

TAAGTTGGTG
switch fluorescence ratio: 0.976 ± 0.018

TAAGTTTTAG
switch fluorescence ratio: 1.07 ± 0.081

TAATAAAATT
switch fluorescence ratio: 1.04 ± 0.083

TAATAAATGT
switch fluorescence ratio: 0.9941 ± 0.0044

TAATAAGGCT
switch fluorescence ratio: 0.9935 ± 0.0076

TAATAATCTA
switch fluorescence ratio: 1.01 ± 0.027

TAATAATTCT
switch fluorescence ratio: 0.99 ± 0.019

TAATACCAAG
switch fluorescence ratio: 1 ± 0.029

TAATACTATG
switch fluorescence ratio: 1.05 ± 0.074

TAATACTTAT
switch fluorescence ratio: 0.994 ± 0.033

TAATAGGCCT
switch fluorescence ratio: 1.026 ± 0.01

TAATAGGTTG
switch fluorescence ratio: 0.97 ± 0.012

TAATAGTTCC
switch fluorescence ratio: 1.106 ± 0.0025

TAATAGTTT
switch fluorescence ratio: 1.04 ± 0.033

TAATATATTT
switch fluorescence ratio: 1.01 ± 0.028

TAATATTTAA
switch fluorescence ratio: 1.05 ± 0.009

TAATCACAAT
switch fluorescence ratio: 1.032 ± 0.0044

TAATCACGAA
switch fluorescence ratio: 1.036 ± 0.0039

TAATCGATAT
switch fluorescence ratio: 0.9803 ± 0.0026

TAATCGCCAA
switch fluorescence ratio: 1.05 ± 0.0039

TAATCGCCTG
switch fluorescence ratio: 0.981 ± 0.034
